Key:
[1] = target: HIV-1 Env of virus strain 6471.V1.C16 (HIV-1); assay: cell-based or functional assay
[2] = target: BG505 SOSIP.664 Env trimer (HIV-1); assay: negative stain EM of the complex, 6:1 molar ratio

B1: 10E8 IgG (antibody, V domains shown)
VH: EVQLVESGGGLVKPGGSLRLSCSASGFDFDNAWMTWVRQPPGKGLEWVGRITGPGEGWSVDYAAPVEGRFTISRLNSINFLYLEMNNLRMEDSGLYFCARTGKYYDFWSGYPPGEEYFQDWGRGTLVTVSS
VL: SYELTQETGVSVALGRTVTITCRGDSLRSHYASWYQKKPGQAPILLFYGKNNRPSGVPDRFSGSASGNRASLTISGAQAEDDAEYYCSSRDKSGSRLSVFGGGTKLTVL
Work on B1 yielded an IC50, neutralization of Env-pseudovirus on TZM-bl cells [1] of 4.98 µg/mL.

B2: Bi-ScFv dVRC01-5X-PGT121 (bispecific antibody)
scFv: SLTQSPGTLSLSPGETAIISCRTSQYGSLAWYQQRPGQAPRLVIYSGSTRAAGIPDRFSGSRWGPDYNLTISNLESGDFGVYYCQQYEFFGQGTKVQVDIKGGGGSGGGGSGGGGSQVQLVQSGGQMKKPGESMRISCRASGYEFIDCTLNWIRLAPGKRPEWMGWLKPRGGAVNYARPLQGRVTMTRDVYSDTAFLELRSLTVDDTAVYFCTRGKNCDYNWDFEHWGRGTPVIVSSGGGGSGGGGSGGGGSGGGGSGGGGSSDISVAPGETARISCGEKSLGSRAVQWYQHRAGQAPSLIIYNNQDRPSGIPERFSGSPDSPFGTTATLTITSVEAGDEADYYCHIWDSRVPTKWVFGGGTTLTVLGGGGSGGGGSGGGGSQMQLQESGPGLVKPSETLSLTCSVSGASISDSYWSWIRRSPGKGLEWIGYVHKSGDTNYSPSLKSRVNLSLDTSKNQVSLSLVAATAADSGKYYCARTLHGRRIYGIVAFNEWFTYFYMDVWGNGTQVTVSSGSGHHHHHH
B2 showed a Bi-ScFvs bound per Env trimer (Bi-ScFv per Env trimer) [2] of 3.
